For 2 molecules, EC50 results are on record in patent US20170281765A1 (SORRENTO THERAPEUTICS, published 2017).

This assay addresses T1, human PD-L1 expressed on the cell surface (human, UniProt Q9NZQ7 19-290).
T1 construct: whole, on cells; also called CHO-PD-L1
In words: flow cytometry on anti-CD3 activated human lymphocytes (CD19 negative gate), PE anti-human Ig detection. The protocol:
This example provides a characterization of the disclosed anti-PD-L1 antibodies binding to human PD-L1 expressed on human lymphocytes. Human peripheral blood mononuclear cells were activated by culture with anti-CD3 for three days to promote expression of PD-L1. Binding was assessed by adding serial dilutions of the antibody to the activated lymphocytes. After washing, binding was detected by staining with a phycoerythrin labeled anti-human Ig reagent followed by analysis using a FACS Aria (Becton Dickinson, San Jose, Calif.). Since the anti-human Ig reagent reacts with immunoglobulin on B lymphocytes the cells were co-staining with an anti-human CD19 APC-Cy5 reagent.
For orientation: A flow cytometer gives signals particle by particle.

T1 sequence (Q9NZQ7 19-290): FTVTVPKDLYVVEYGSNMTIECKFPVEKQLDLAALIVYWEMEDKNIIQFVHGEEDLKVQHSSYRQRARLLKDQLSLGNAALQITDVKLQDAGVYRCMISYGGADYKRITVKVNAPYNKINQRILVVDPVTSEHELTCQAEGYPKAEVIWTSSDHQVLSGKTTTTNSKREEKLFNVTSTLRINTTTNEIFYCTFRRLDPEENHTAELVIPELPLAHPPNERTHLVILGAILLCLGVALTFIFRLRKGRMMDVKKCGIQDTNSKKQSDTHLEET

B1: anti-PD-L1 antibody H6 (antibody, V domains shown)
VH: QMQLVQSGAEVKKPGSSVKVSCKASGGTFSSYAISWVRQAPGQGLEWMGGIIPIFGTANYAQKFQGRVTITADESTSTAYMELSSLRSEDTAVYYCARGNIVATITPLDYWGQGTLVTVSS
VL: SYELMQPPSVSVAPGKTATIACGGENIGRKTVHWYQQKPGQAPVLVIYYDSDRPSGIPERFSGSNSGNTATLTISRVEAGDEADYYCQVWDSSSDHRIFGGGTKLTVL
notes: Fully human antibody of an IgG class
On to B1, for which the EC50 was about 100 pM.

B2: anti-PD-L1 antibody H10 (antibody, V domains shown)
VH: EVQLVQSGGGLVQPGGSLRLSCAASGFTFSSYSMNWVRQAPGKGLEWVSYISSSSSTIYYADSVKGRFTISRDNAKNSLYLQMNSLRDEDTAVYYCARGDYYYGMDVWGQGTTVTVSS
VL: EIVLTQSPSSLSASIGDRVTLTCRASQSIRRFLNWYQQKPGKAPELLIYTASSLQSGVPSRFSGSGSGTDFTLTINSLQPEDFATYYCQQSYAVSPYTFGQGTKVEIR
notes: as for B1
For the molecule B2, the EC50 was about 100 pM.

Usually EC50 stands for the concentration needed to bring the measured effect to its halfway point. Lower therefore signals higher potency in that assay.
